Results on twelve molecules are retold here after US6458552B1, “Metalloprotease peptide substrates and methods” (Ortho-McNeil Pharmaceutical, Inc., priority 2000, dated 2002).

In data set [1] the target is T1, ADAM8 (Homo sapiens, UniProt P78325).
T1 construct: FLAG (C); made in house; host or cells: Sf9 insect cells (baculovirus, pFastBac1)
T1 sequence (P78325 200-400 limits assumed): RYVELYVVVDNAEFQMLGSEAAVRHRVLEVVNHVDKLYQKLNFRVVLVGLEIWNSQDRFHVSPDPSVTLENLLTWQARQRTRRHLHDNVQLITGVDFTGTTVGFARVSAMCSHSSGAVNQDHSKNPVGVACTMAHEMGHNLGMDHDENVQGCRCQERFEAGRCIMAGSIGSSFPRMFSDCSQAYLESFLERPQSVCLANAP
Kind of data set: FRET peptide substrate screening, ADAM8. The format is biochemical. Also noted: key: from one star (*) to five stars (*****) to indicate weaker to more potent substrates respectively; from one star (*) to five stars (*****) to indicate weaker to more potent substrates respectively; from one star (*) to five stars (*****) to indicate weaker to more potent substrates respectively; from one star (*) to five stars (*****) to indicate weaker to more potent substrates respectively; (—) = no detectable activity. The following applies: FRET peptide 20 uM, room temperature. The source says: (§1) Forty nine different peptides were synthesized for testing protease activity. The peptides comprised (i) a collection of substrates for other proteases, as well as (ii) a number of sequences corresponding to membrane proximal cleavage sites of various proteins postulated to be released by metalloproteases (including those published by (Roghani et al., 1999) for ADAM9/MDC9). In order to use the principle of fluorescence resonance energy transfer, or FRET, for the assay, the peptides were labelled at the C-terminus with Dabcyl and at the N-terminus with Edans. Thus cleavage of the peptides can be monitored by the increase in Edans fluorescence at 460 nm (excitation 360 nm) as a result of the decrease in proximity of the Dabcyl quencher. The assay was performed by diluting the ADAM8, ADAM15, MDC-L, or ADAM17 (50 to 100 ng of protein, one to two picomoles) in assay buffer, 10 mM HEPES, pH 7.5, containing 0.001% Brij35. The reaction was initiated by the addition of peptide substrate to a final concentration of 20 uM. The assays were typically run for 20 to 60 minutes at room temperature and the slope of the kinetic increase in fluorescence was determined to calculate the rate of the reaction. If necessary, it was possible to stop the reaction at a certain time by the addition of 1/10th volume of 1M NaOAc (sodium acetate), pH 3.5.
(§2) This peptide was cleaved by all enzymes, and thus was chosen to represent a standard by which to compare the relative activity of the various enzymes for their potential to cleave the various peptide substrates.

For the next data set, the target named is T2, ADAM15 (Homo sapiens, UniProt Q13444).
T2 construct: FLAG (C); made in house; host or cells: Sf9 insect cells (baculovirus, pFastBac1)
T2 sequence (Q13444 213-414 limits assumed): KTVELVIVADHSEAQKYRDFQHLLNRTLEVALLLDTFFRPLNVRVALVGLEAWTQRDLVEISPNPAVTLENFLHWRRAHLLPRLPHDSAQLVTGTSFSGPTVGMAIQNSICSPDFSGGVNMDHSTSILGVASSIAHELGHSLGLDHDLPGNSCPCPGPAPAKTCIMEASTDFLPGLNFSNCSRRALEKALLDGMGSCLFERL
Kind of data set: FRET peptide substrate screening, ADAM15. The data set is classed as biochemical. More on the design: key: from one star (*) to five stars (*****) to indicate weaker to more potent substrates respectively; from one star (*) to five stars (*****) to indicate weaker to more potent substrates respectively; from one star (*) to five stars (*****) to indicate weaker to more potent substrates respectively; from one star (*) to five stars (*****) to indicate weaker to more potent substrates respectively; (—) = no detectable activity. The conditions noted are these: FRET peptide 20 uM, room temperature.
Source text: as §1, §2

Another data set deals with T3, MDC-L (Homo sapiens, UniProt Q9UKQ2).
T3 construct: FLAG (C); made in house; host or cells: Sf9 insect cells (baculovirus, pFastBac1)
T3 sequence (Q9UKQ2 204-399 limits assumed): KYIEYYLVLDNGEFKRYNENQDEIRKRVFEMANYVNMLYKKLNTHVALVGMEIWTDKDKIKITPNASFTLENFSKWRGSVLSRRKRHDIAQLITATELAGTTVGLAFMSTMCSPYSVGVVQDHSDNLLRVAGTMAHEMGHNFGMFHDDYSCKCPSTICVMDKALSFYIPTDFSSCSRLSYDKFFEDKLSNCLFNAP
As to the kind of experiment: FRET peptide substrate screening, MDC-L. The data set is classed as biochemical. Also noted: key: from one star (*) to five stars (*****) to indicate weaker to more potent substrates respectively; from one star (*) to five stars (*****) to indicate weaker to more potent substrates respectively; from one star (*) to five stars (*****) to indicate weaker to more potent substrates respectively; from one star (*) to five stars (*****) to indicate weaker to more potent substrates respectively; (—) = no detectable activity. The conditions noted are these: FRET peptide 20 uM, room temperature.
Source text: as §1, §2

For another data set, the target named is T4, ADAM17 (Homo sapiens, UniProt P78536).
T4 construct: made in house
As to the kind of experiment: FRET peptide substrate screening, ADAM17. The data set is classed as biochemical. Also noted: key: from one star (*) to five stars (*****) to indicate weaker to more potent substrates respectively; from one star (*) to five stars (*****) to indicate weaker to more potent substrates respectively; from one star (*) to five stars (*****) to indicate weaker to more potent substrates respectively; from one star (*) to five stars (*****) to indicate weaker to more potent substrates respectively; (—) = no detectable activity. The conditions noted are these: FRET peptide 20 uM, room temperature.
Source text: as §1, §2

Data set [2] has as its target T1, ADAM8. As to the kind of experiment: Kinetic analysis of the affinity of ADAM8 for cleavage of 4 peptides. The data set is classed as biochemical. The conditions noted are these: for K0.5 (substrate concentration at which the enzyme activity was 50% of the Vmax): ADAM8, 30 minutes at room temperature, by inspection of the fitted curves; for Cleavage site of ADAM8 within the peptide: carot marks the cleavage site. Here is the method: To confirm the screening assay, ADAM8 was further analyzed for its catalytic rate for 4 different peptides. The assay was performed by diluting the ADAM8 in assay buffer, 10 mM HEPES, pH 7.5, containing 0.001% Brij35. […] The assay was run for 30 minutes at room temperature. […] The curves were fitted to the data with the program Grafit (Erithacus Software). […] The Vmax for each substrate was calculated by non-linear fitting of the data. The substrate concentration at which the enzyme activity was 50% of the Vmax (designated “K0.5”) was determined by inspection of the fitted curves. Table 2 also provides the cleavage site of ADAM8 within each peptide, as indicated by a carot within the peptide sequence.

The target of data set [3] is T5, CatE1 FRET peptide X-KPAKFFRL-Z (not fully specified).
T5 chain: KPAKFFRL

T4 sequence (P78536 215-824, species assumed): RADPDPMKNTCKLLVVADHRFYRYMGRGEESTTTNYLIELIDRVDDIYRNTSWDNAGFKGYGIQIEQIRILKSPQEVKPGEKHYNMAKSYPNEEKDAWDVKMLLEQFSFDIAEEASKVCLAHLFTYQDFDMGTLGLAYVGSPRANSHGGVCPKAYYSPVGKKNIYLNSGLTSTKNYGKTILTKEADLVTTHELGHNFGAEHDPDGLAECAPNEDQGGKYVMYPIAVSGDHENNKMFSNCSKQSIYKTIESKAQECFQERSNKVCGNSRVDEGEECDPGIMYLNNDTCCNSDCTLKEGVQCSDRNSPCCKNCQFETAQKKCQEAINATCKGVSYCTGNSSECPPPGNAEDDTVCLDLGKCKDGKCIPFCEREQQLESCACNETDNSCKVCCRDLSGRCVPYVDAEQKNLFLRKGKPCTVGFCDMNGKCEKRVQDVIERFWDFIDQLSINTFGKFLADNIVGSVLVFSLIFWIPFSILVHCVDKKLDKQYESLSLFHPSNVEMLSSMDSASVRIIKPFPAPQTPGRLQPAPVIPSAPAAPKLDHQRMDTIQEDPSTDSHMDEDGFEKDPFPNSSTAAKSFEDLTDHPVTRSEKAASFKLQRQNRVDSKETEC

For the molecule “X-PPVAASSLRN-Z ({Edans‑E}-PPVAASSLRN-{dabcyl‑K}) [KL1, FRET peptide substrate; X = Edans-E; Z = dabcyl-K]”, the “Relative proteolytic activity ADAM8” value with ADAM8 [1] was “***”. Besides, the “Relative proteolytic activity ADAM15” value with ADAM15 is recorded as “***”. Besides, in the data set with MDC-L, the “Relative proteolytic activity MDC-L” value is given as “***”. For the same molecule, in the data set with ADAM17, the “Relative proteolytic activity ADAM17” value is given as “(—)”.

On to “X-RVRRALPS-Z ({Edans‑E}-RVRRALPS-{dabcyl‑K}) [AD8P2, FRET peptide substrate; X = Edans-E; Z = dabcyl-K]”, for which, in the data set with ADAM8 [1], the “Relative proteolytic activity ADAM8” value is recorded as “***”. Further, the “Relative proteolytic activity ADAM15” value with ADAM15 is on record as “***”. The “Relative proteolytic activity MDC-L” value in the data set with MDC-L is “***”. Moreover, the “Relative proteolytic activity ADAM17” value in the data set with ADAM17 is recorded as “(—)”.

“Z-RPLGLAR-X ({dabcyl‑K}-RPLGLAR-{Edans‑E}) [Mat, FRET peptide substrate; X = Edans-E; Z = dabcyl-K]”: the “Relative proteolytic activity ADAM8” value in the data set with ADAM8 [1] is listed as “***”. Besides, in the data set with ADAM15, the “Relative proteolytic activity ADAM15” value was “***”. Also, in the data set with MDC-L, the “Relative proteolytic activity MDC-L” value was “***”. In the data set with ADAM17, the “Relative proteolytic activity ADAM17” value is “***”.

In the case of “X-KPAAFFRL-Z ({Edans‑E}-KPAAFFRL-{dabcyl‑K}) [CatE, FRET peptide substrate; X = Edans-E; Z = dabcyl-K]”, in the data set with ADAM8 [2], the “K0.5 (substrate concentration at which the enzyme activity was 50% of the Vmax)” value was 5 µM and the “Cleavage site of ADAM8 within the peptide” value (“Cleavage site” for short) was “XKPAAF^FRLZ”. In addition, in the data set with ADAM8 [1], the “Relative proteolytic activity ADAM8” value is “*****”. The “Relative proteolytic activity ADAM15” value with ADAM15 was “*****”. Moreover, the “Relative proteolytic activity MDC-L” value with MDC-L is reported as “*****”. For the same molecule, the “Relative proteolytic activity ADAM17” value with ADAM17 is “(—)”.

Regarding “X-PLAQAVRSSS-Z ({Edans‑E}-PLAQAVRSSS-{dabcyl‑K}) [TNFα, FRET peptide substrate; X = Edans-E; Z = dabcyl-K]”, in the data set with ADAM8 [2], the “K0.5 (substrate concentration at which the enzyme activity was 50% of the Vmax)” value was 5 µM and the “Cleavage site” value is “XPLAQAVRS^SSZ”. For the same molecule, the “Relative proteolytic activity ADAM8” value with ADAM8 [1] is listed as “***”. The “Relative proteolytic activity ADAM15” value with ADAM15 is “***”. Besides, the “Relative proteolytic activity MDC-L” value with MDC-L is recorded as “***”. Moreover, the “Relative proteolytic activity ADAM17” value with ADAM17 was “***”.

As to “Z-RGVVNASSRLAK-X ({dabcyl‑K}-RGVVNASSRLAK-{Edans‑E}) [KAS-1, FRET peptide substrate; X = Edans-E; Z = dabcyl-K]”, the “Relative proteolytic activity ADAM8” value with ADAM8 [1] was “***”. In the data set with ADAM15, the “Relative proteolytic activity ADAM15” value is on record as “***”. In addition, the “Relative proteolytic activity MDC-L” value with MDC-L was “***”. In addition, the “Relative proteolytic activity ADAM17” value in the data set with ADAM17 is recorded as “(—)”.

As for “X-RFAQAQQQLP-Z ({Edans‑E}-RFAQAQQQLP-{dabcyl‑K}) [CD27L, FRET peptide substrate; X = Edans-E; Z = dabcyl-K]”, in the data set with ADAM8 [2], the “K0.5 (substrate concentration at which the enzyme activity was 50% of the Vmax)” value turned out to be 5 µM and the “Cleavage site” value was “XRFAQA^QQQLPZ”. Further, the “Relative proteolytic activity ADAM8” value in the data set with ADAM8 [1] is given as “****”. Also, the “Relative proteolytic activity ADAM15” value in the data set with ADAM15 is “****”. Also, the “Relative proteolytic activity MDC-L” value with MDC-L was “****”. Besides, the “Relative proteolytic activity ADAM17” value with ADAM17 is “(—)”.

In the case of “Z-LAQAVRSSSR-X ({dabcyl‑K}-LAQAVRSSSR-{Edans‑E}) [TNFα(−4 + 6), FRET peptide substrate; X = Edans-E; Z = dabcyl-K]”, in the data set with ADAM8 [1], the “Relative proteolytic activity ADAM8” value is “*”. For the same molecule, the “Relative proteolytic activity ADAM15” value in the data set with ADAM15 is “*”. In addition, the “Relative proteolytic activity MDC-L” value with MDC-L is reported as “*”. For the same molecule, the “Relative proteolytic activity ADAM17” value with ADAM17 was “***”.

As to “X-KPAKFFRL-Z ({Edans‑E}-KPAKFFRL-{dabcyl‑K}) [CatEl, FRET peptide substrate; X = Edans-E; Z = dabcyl-K]”, in the data set with ADAM8 [2], the “K0.5 (substrate concentration at which the enzyme activity was 50% of the Vmax)” value is 2.5 µM and the “Cleavage site” value was “XKPAKF^FRLZ”. Also, in the data set with ADAM8 [1], the “Relative proteolytic activity ADAM8” value is recorded as “*****”. Further, the “Relative proteolytic activity ADAM15” value with ADAM15 is recorded as “*****”. Moreover, the “Relative proteolytic activity MDC-L” value with MDC-L is listed as “*****”. In the data set with ADAM17, the “Relative proteolytic activity ADAM17” value is given as “(—)”.

For “X-RTAAVFRP-Z ({Edans‑E}-RTAAVFRP-{dabcyl‑K}) [AD8P, FRET peptide substrate; X = Edans-E; Z = dabcyl-K]”, the “Relative proteolytic activity ADAM8” value with ADAM8 [1] is “*”. Moreover, the “Relative proteolytic activity ADAM15” value in the data set with ADAM15 is “*”. Further, the “Relative proteolytic activity MDC-L” value with MDC-L was “*”. Further, the “Relative proteolytic activity ADAM17” value with ADAM17 is listed as “*****”.

Take “X-PSAAQTARQHP-Z ({Edans‑E}-PSAAQTARQHP-{dabcyl‑K}) [TNFB2, FRET peptide substrate; X = Edans-E; Z = dabcyl-K]”: in the data set with ADAM8 [1], the “Relative proteolytic activity ADAM8” value is recorded as “***”. Besides, in the data set with ADAM15, the “Relative proteolytic activity ADAM15” value is reported as “***”. In the data set with MDC-L, the “Relative proteolytic activity MDC-L” value is “***”. Moreover, the “Relative proteolytic activity ADAM17” value in the data set with ADAM17 is “(—)”.

B1: soluble recombinant human ADAM8 with pro- and protease domains and C-terminal FLAG epitope (inactive precursor form) (protein)
chain: IAPSRPWALMEQYEVVLPWRLPGPRVRRALPSHLGLHPERVSYVLGATGHNFTLHLRKNRDLLGSGYTETYTAANGSEVTEQPRGQDHCFYQGHVEGYPDSAASLSTCAGLRGFFQVGSDLHLIEPLDEGGEGGRHAVYQAEHLLQTAGTCGVSDDSLGSLLGPRTAAVFRPRPGDSLPSRETRYVELYVVVDNAEFQMLGSEAAVRHRVLEVVNHVDKLYQKLNFRVVLVGLEIWNSQDRFHVSPDPSVTLENLLTWQARQRTRRHLHDNVQLITGVDFTGTTVGFARVSAMCSHSSGAVNQDHSKNPVGVACTMAHEMGHNLGMDHDENVQGCRCQERFEAGRCIMAGSIGSSFPRMFSDCSQAYLESFLERPQSVCLANAP
In the case of B1, the “fluorometric proteolytic assay / FRET peptide zymography” value in data set [3] is given as “showed no activity in the fluorometric proteolytic assay”.
